Columns and labels:
[1] = molecular target: the molecule itself; test: cryo-EM structure
[2] = molecular target: GroEL (wild-type bacterial chaperonin) (UniProt P0A6F5 1-548); test: cryo-EM structure
Sequence of GroEL (wild-type bacterial chaperonin) (P0A6F5 whole entry): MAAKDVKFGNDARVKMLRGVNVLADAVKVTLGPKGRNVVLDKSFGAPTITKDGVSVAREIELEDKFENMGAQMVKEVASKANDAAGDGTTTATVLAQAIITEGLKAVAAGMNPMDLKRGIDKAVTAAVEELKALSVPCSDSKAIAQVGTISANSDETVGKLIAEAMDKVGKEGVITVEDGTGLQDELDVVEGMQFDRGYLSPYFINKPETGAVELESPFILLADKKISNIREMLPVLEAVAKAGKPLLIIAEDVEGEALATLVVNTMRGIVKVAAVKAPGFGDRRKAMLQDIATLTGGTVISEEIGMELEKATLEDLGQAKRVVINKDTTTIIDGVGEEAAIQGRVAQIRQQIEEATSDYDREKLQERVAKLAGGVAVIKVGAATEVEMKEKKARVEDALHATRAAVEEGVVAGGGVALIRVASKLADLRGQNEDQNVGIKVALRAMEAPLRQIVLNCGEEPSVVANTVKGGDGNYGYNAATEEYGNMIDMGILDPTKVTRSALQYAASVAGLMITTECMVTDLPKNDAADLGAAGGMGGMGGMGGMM

B1: GroES (co-chaperone of GroEL) (natural protein)
chain: MNIRPLHDRVIVKRKEVETKSAGGIVLTGSAAAKSTRGEVLAVGNGRILENGEVKPLDVKVGDIVIFNDGYGVKSEKIDNEEVLIMSESDILAIVEA
B1: binds [1]; binds [2].

From PMC8749442 (iScience, 2021)
